Test results from article PMC5108336, “Tubular epithelial cells in renal clear cell carcinoma express high RIPK1/3 and show increased susceptibility to TNF receptor 1-induced necroptosis” (Cell Death & Disease, 2016).

T1: Mixed lineage kinase domain-like phosphorylated at Serine 358 (human (endogenous in RCC and kidney …, UniProt Q8NB16 1-471, phosphoserine at 358))
T1 construct: also called pMLKL^Ser358; phospho-MLKL^Ser358; source: endogenous, organ cultures of human RCC grade 1 and adjacent non-tumor kidney (tissue sections)
T1 sequence (looked up): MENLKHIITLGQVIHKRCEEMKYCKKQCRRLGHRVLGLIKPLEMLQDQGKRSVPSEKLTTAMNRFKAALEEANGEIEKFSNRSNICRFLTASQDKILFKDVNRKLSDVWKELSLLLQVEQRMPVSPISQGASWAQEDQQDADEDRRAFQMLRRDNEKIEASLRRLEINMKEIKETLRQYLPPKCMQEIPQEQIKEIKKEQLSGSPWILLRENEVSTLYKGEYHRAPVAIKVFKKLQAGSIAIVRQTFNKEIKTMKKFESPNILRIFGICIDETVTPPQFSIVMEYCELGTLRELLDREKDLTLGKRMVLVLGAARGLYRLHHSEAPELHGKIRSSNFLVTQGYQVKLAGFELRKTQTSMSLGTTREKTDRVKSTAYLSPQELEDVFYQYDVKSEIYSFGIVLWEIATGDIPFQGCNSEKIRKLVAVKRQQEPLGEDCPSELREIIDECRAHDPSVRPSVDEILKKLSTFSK

B1: receptor-interacting protein kinase 1 (natural protein, UniProt Q13546-1 1-671, looked up)
chain: MQPDMSLNVIKMKSSDFLESAELDSGGFGKVSLCFHRTQGLMIMKTVYKGPNCIEHNEALLEEAKMMNRLRHSRVVKLLGVIIEEGKYSLVMEYMEKGNLMHVLKAEMSTPLSVKGRIILEIIEGMCYLHGKGVIHKDLKPENILVDNDFHIKIADLGLASFKMWSKLNNEEHNELREVDGTAKKNGGTLYYMAPEHLNDVNAKPTEKSDVYSFAVVLWAIFANKEPYENAICEQQLIMCIKSGNRPDVDDITEYCPREIISLMKLCWEANPEARPTFPGIEEKFRPFYLSQLEESVEEDVKSLKKEYSNENAVVKRMQSLQLDCVAVPSSRSNSATEQPGSLHSSQGLGMGPVEESWFAPSLEHPQEENEPSLQSKLQDEANYHLYGSRMDRQTKQQPRQNVAYNREEERRRRVSHDPFAQQRPYENFQNTEGKGTAYSSAASHGNAVHQPSGLTSQPQVLYQNNGLYSSHGFGTRPLDPGTAGPRVWYRPIPSHMPSLHNIPVPETNYLGNTPTMPFSSLPPTDESIKYTIYNSTGIQIGAYNYMEIGGTSSSLLDSTNTNFKEEPAAKYQAIFDNTTSLTDKHLDPIRENLGKHWKNCARKLGFTQSQIDEIDHDYERDGLKEKVYQMLQKWVMREGIKGATVGKLAQALHQCSRIDLLSSLIYVSQN
notes: Detected in situ by an anti-RIPK1 antibody; also called RIPK1; source: endogenous, organ cultures of human RCC grade 1 and adjacent non-tumor kidney (tissue sections)
B2: receptor-interacting protein kinase 3 (natural protein, UniProt Q9Y572-1 1-518, looked up)
chain: MSCVKLWPSGAPAPLVSIEELENQELVGKGGFGTVFRAQHRKWGYDVAVKIVNSKAISREVKAMASLDNEFVLRLEGVIEKVNWDQDPKPALVTKFMENGSLSGLLQSQCPRPWPLLCRLLKEVVLGMFYLHDQNPVLLHRDLKPSNVLLDPELHVKLADFGLSTFQGGSQSGTGSGEPGGTLGYLAPELFVNVNRKASTASDVYSFGILMWAVLAGREVELPTEPSLVYEAVCNRQNRPSLAELPQAGPETPGLEGLKELMQLCWSSEPKDRPSFQECLPKTDEVFQMVENNMNAAVSTVKDFLSQLRSSNRRFSIPESGQGGTEMDGFRRTIENQHSRNDVMVSEWLNKLNLEEPPSSVPKKCPSLTKRSRAQEEQVPQAWTAGTSSDSMAQPPQTPETSTFRNQMPSPTSTGTPSPGPRGNQGAERQGMNWSCRTPEPNPVTGRPLVNIYNCSGVQVGDNNYLTMQQTTALPTWGLAPSGKGRGLQHPPPVGSQEGPKDPEAWSRPQGWYNHSGK
notes: Detected in situ by an anti-RIPK3 antibody; also called RIPK3; source: endogenous, organ cultures of human RCC grade 1 and adjacent non-tumor kidney (tissue sections)

Assays:
[1] = molecular target: B2; test: proximity ligation; in situ PLA (Duolink In Situ Detection Reagents Red) on sections of organ cultures of RCC grade 1 and adjacent non-tumor kidney (NK), untreated (UT) or treated with wtTNF (10 ng/ml), R1TNF or R2TNF (1 ug/ml) for 3 h at 37 °C; signal when two proteins are closer than 40 nm; red spots counted in mTECs in 10 random fields at x40; conditions: partners not purified
[2] = molecular target: T1, Mixed lineage kinase domain-like …; test: as above; conditions: partners not purified

fold increase of PLA signal with R1TNF over untreated (non-tumor kidney organ culture) [1] | fold increase of PLA signal with R1TNF over untreated (non-tumor kidney organ culture) [2] | Binder
~3 fold |  | B1
 | ~2.5 fold | B2
